Experiments:
cow serum albumin = molecular target: T1, cow serum albumin (cow, UniProt P02769 25-607); experiment: SPR (Biacore 8K), albumin immobilized on CM5 chip, 25 C, steady state
T1 construct: Bought protein, immobilized on a CM5 chip by amine coupling; also called Cow SA

rat serum albumin = molecular target: T2, rat serum albumin (rat, UniProt P02770 25-608); experiment: SPR (Biacore 8K), albumin immobilized on CM5 chip, 25 C, 1:1 kinetic fit
T2 construct: Bought protein, immobilized on a CM5 chip by amine coupling; also called Rat SA
Procedure: (§1) The immobilization of the serum albumin to a Series S Sensor Chip CM5 surface is performed according to the manufacturer's instructions (Amine Coupling Kit BR-1000-50). Briefly, carboxyl groups on the sensor chip surfaces (flow cell 1 and 2) are activated by injecting 70 μL of a mixture containing 75 mg/mL EDC and 11.5 mg/mL NHS at 10 μL/min. Human, cynomolgus monkey, mouse, rat, pig, dog, cow and rabbit serum albumin are diluted in 10 mM sodium acetate pH 4.0 (BR-1003-49) at […] and then injected over the activated chip surfaces (flow cell 2, channel 1 to 8) at 10 μL/min for 180 sec (human, mouse, rat, pig and cow serum albumin are obtained from Sigma Aldrich (St. Louis, MO); cynomolgus monkey serum albumin is obtained from Hölzel Diagnostika (Cologne, Germany); dog serum albumin is obtained from Molecular Innovations (Novi, MI); and rabbit serum albumin is obtained from Fitzgerald Industries Intl. (Acton, MA). The various serum albumins are covalently immobilized through free amines onto a carboxymethyl dextran-coated sensor chip CM5 targeting a surface density of about 100 (62-145) RU. Excess reactive groups on the surfaces (flow cell 1 and 2) are deactivated by injecting 70 μL of 1 M ETA HCl—NaOH pH 8.5.
(§2) 150 μl of sample is individually injecting sequentially across the immobilized serum albumins on the chip's surface and dissociating for 600 sec at 50 μL/min flow rate at 25° C. The surface is regenerated by injecting 10 mM glycine-HCl pH 1.5 (BR-1003-54) at 50 μL/min for 100 sec. The resulting sensorgrams are analyzed using Biacore 8K Insight Evaluation Software (version 2.0.15.12933) 1:1 binding kinetics model fitting to calculate the binding kinetic parameter association rate (ka), dissociation rate (kd), and equilibrium dissociation constant (KD).

[1] = molecular target: T3, cynomolgus monkey serum albumin (cynomolgus monkey, UniProt A2V9Z4 25-608); experiment: as above
T3 construct: Bought protein, immobilized on a CM5 chip by amine coupling; also called Cyno SA
Procedure: as §1, §2

human serum albumin = molecular target: T4, human serum albumin (human, UniProt P02768 25-609); experiment: as above
T4 construct: Bought protein, immobilized on a CM5 chip by amine coupling; also called Human SA
Procedure: as §1, §2

pig serum albumin = molecular target: T5, pig serum albumin (pig, UniProt P08835 25-607); experiment: as above
T5 construct: Bought protein, immobilized on a CM5 chip by amine coupling; also called Pig SA
Procedure: as §1, §2

mouse serum albumin = molecular target: T6, mouse serum albumin (mouse, UniProt P07724 25-608); experiment: as above
T6 construct: Bought protein, immobilized on a CM5 chip by amine coupling; also called Mouse SA
Procedure: as §1, §2

dog serum albumin = molecular target: T7, dog serum albumin (dog, UniProt P49822 25-608); experiment: as above
T7 construct: Bought protein, immobilized on a CM5 chip by amine coupling; also called Dog SA
Procedure: as §1, §2

rabbit serum albumin = molecular target: T8, rabbit serum albumin (rabbit, UniProt P49065 25-608); experiment: SPR (Biacore 8K), albumin immobilized on CM5 chip, 25 C
T8 construct: Bought protein, immobilized on a CM5 chip by amine coupling; also called Rabbit SA
Procedure: as §1, §2

B1: RLN Analog 13 (other)
chain: EVQLLESGGGLVQPGGSLRLSCAASGRYIDETAVAWFRQAPGKGREFVAGIGGGVDITYYADSVKGRFTISRDNSKNTLYLQMNSLRPEDTAVYYCAARPGRPLITSKVADLYPYWGQGTLVTVSSGGGGQGGGGQGGGGQGGGGQGGGGQALANKCCHVGCTKRSLARFCGGGSGGSGGGSWMEEVIKLCGRELVRAQIAICGMSTWS
notes: Single-chain fusion: VHH - (G4Q)5 L1 - RLN2 A chain (desA1-4) - L2 - RLN2 B chain (desB1)
B1 showed a Kd (cow serum albumin) of 29 nM, a Kd (rat serum albumin) of 2 nM and a koff (rat serum albumin) of 0.0033 s⁻¹. The kon (rat serum albumin) was 1.7e+06 M⁻¹ s⁻¹, the Kd [1] was 0.49 nM and the koff [1] was 0.0007 s⁻¹. It also gave a kon [1] of 1.4e+06 M⁻¹ s⁻¹, a Kd (human serum albumin) of 0.14 nM and a koff (human serum albumin) of 0.00019 s⁻¹. It also gave a kon (human serum albumin) of 1.4e+06 M⁻¹ s⁻¹, a Kd (pig serum albumin) of 5 nM and a koff (pig serum albumin) of 0.006 s⁻¹. For the same binder, the kon (pig serum albumin) was 1.2e+06 M⁻¹ s⁻¹, the Kd (mouse serum albumin) was 2.6 nM and the koff (mouse serum albumin) was 0.0048 s⁻¹. It also gave a kon (mouse serum albumin) of 1.8e+06 M⁻¹ s⁻¹, a Kd (dog serum albumin) of 0.92 nM and a koff (dog serum albumin) of 0.0017 s⁻¹. The kon (dog serum albumin) was 1.9e+06 M⁻¹ s⁻¹ and the binding result (rabbit serum albumin) was “no binding (tested: 1000 nM (highest concentration tested))”.

From patent US20260125446A1 (Eli Lilly, published 2026)
